Source: PMC4293345 (Molecular and cellular neurosciences, 2014)
Where two headings read alike, the source gives them in different places.

Key:
[1] = target: T1, MBP-tagged NCS-1 (neuronal calcium sensor-1) (UniProt P62166 1-190); assay: pull-down
[2] = target: T1, MBP-tagged NCS-1 (neuronal calcium …); assay: pull-down; remark: listed apart in the source

T1 sequence (P62166 whole entry): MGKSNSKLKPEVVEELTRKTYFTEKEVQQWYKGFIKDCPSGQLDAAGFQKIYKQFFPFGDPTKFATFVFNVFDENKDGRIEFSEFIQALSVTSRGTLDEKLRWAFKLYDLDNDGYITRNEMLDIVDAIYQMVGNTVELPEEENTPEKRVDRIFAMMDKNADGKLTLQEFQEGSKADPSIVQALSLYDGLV

B1: GST-tagged IQ-like domain of CaV2.1 (domain or fragment)
chain: LMALIRTALDIKIAKGGADKQQMDAELRKEMMAIWPNLSQKTLDLLVTPHKSTDLTVGKIYAAMMIMEYYRQSKAKKLQAMREEQNRTPLMFQRMEPPSPTQEGGPSQNALPSTQLD
relative binding (ratio of IQ-GST to NCS-1-MBP) [1]: 0.56 ± 0.06
relative binding (ratio of IQ-GST to NCS-1-MBP) [2]: 0.57 ± 0.06
